Earlier results in publication PMC9837045.
“And” between values parts separate entries of the source, which are not always exact repeats. Equal entries are not always repeated. Where two headings read alike, the source gives them in different places.

Columns and labels:
BMP9 (Homo sapiens) [1] = target: BMP9 (Homo sapiens) (UniProt Q9UK05)
BMP9 (Homo sapiens) [2] = target: BMP9 (Homo sapiens) (UniProt Q9UK05); assay: SPR
BMP9 (Homo sapiens) [3] = target: BMP9 (Homo sapiens) (UniProt Q9UK05); remark: listed apart in the source
Activin A (Homo sapiens) = Activin A (Homo sapiens) (UniProt P08476); assay: SPR
BMP9 (Homo sapiens) [4] = target: BMP9 (Homo sapiens) (UniProt Q9UK05); remark: listed apart in the source

Sequence of UniProt Q9UK05 (Q9UK05 320-429): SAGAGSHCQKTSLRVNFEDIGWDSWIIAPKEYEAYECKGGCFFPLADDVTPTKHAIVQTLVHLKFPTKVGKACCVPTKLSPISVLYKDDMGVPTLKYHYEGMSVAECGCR
Sequence of UniProt P08476 (P08476 311-426): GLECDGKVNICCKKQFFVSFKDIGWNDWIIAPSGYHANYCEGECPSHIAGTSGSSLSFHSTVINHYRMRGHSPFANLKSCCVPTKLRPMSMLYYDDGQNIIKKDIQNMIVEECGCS

| Kd (Activin A (Homo sapiens)) [nM] | Substance | further results |
| --- | --- | --- |
|  | ALK1-Fc ECD (from UniProt P37023) | Kd (BMP9 (Homo sapiens) [1]): 0.0481 nM and 0.0455 nM; Kd (BMP9 (Homo sapiens) [2]): 0.0313 nM |
|  | ALK2-Fc ECD (from UniProt Q04771) | Kd (BMP9 (Homo sapiens) [3]): 83 nM |
| 59 | BMPR2 ECD (from UniProt Q13873) |  |
| 14 | BMPR2-Fc ECD (from UniProt Q13873) |  |
|  | ALK1-ECD ECD (from UniProt P37023) | Kd (BMP9 (Homo sapiens) [4]): 0.0716 nM |
| 0.13 | ACVR2A-Fc ECD (from UniProt P27037) |  |
| 0.0092 | ACVR2B-Fc ECD (from UniProt Q13705) | Kd (BMP9 (Homo sapiens) [2]): 0.033 nM and 0.116 nM |
| 1.1 | ACVR2B ECD (from UniProt Q13705) |  |
| 0.108 | ACVR2B-Fc (single ECD) ECD (from UniProt Q13705) |  |
| 0.0125 | (ACVR2B)2-Fc ECD (from UniProt Q13705) |  |
| 5.7 | ACVR2A ECD (from UniProt P27037) |  |
